According to article PMC9993454:

Target: CD16a on NK cells of cynomolgus monkey peripheral blood (cynomolgus monkey (endogenous on NK cells of peripheral blood)) (UniProt Q8SPW2)
Assay: flow cytometry on cells; cynomolgus monkeys given HpmAb1/D1632 (0.5-20 mg/kg s.c., day 0) or IVIG (1 g/kg i.v., days 0 and 1) and anti-platelet antibody on day 1; blood NK cells (CD45+CD14-CD159a+) stained with Fc-competing anti-CD16 3G8 (unoccupied CD16a) and non-competing DJ130c (all CD16a); free ratio and receptor occupancy (RO) against baseline (day 0)

Sequence of UniProt Q8SPW2 (Q8SPW2 17-254): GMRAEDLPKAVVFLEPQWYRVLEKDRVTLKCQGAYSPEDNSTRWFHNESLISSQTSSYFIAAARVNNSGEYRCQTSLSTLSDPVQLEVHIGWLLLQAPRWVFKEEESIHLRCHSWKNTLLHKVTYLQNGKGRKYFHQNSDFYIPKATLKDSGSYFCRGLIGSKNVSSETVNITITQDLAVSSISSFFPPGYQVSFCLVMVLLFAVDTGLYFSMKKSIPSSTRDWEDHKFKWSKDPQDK

free ratio (unoccupied CD16a on NK cells, % of baseline) on day 1: 40.3%
Substance: Intravenous immunoglobulin (IVIG) (antibody)
